From the supplement of paper PMC10567573

B1: ADAMTS4 (parent)
chain: HVDPEEPWSPCSARFITDFLDNGY
B2: NFE2L1 (parent)
chain: TLDGYGIHPKSIDLDNYFTARRLL

Variants of: B1
Experiment: protein stability index of a GFP-peptide fusion (GPS, HEK-293T) (PSI 1-6); higher = more stable
Conditions: c terminus: a fixed tail appended
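Also: lentivirally expressed fusions sorted by FACS into six bins by GFP to DsRed ratio, PSI derived from sequencing read proportions per bin multiplied by bin number.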

Row | Variant | protein stability index
1 | HVDFEEPWSPCSARFITDFLDNGY [P4F] | 1.63
2 | HVDPEEPWSPCSARFPTDFLDNGY [I16P] | 1.81
3 | HVDPEEFWSPCSARFITDFLDNGY [P7F] | 2.85
4 | HVDPEEPWSPCSARFITDCLDNGY [F19C] | 1.5
5 | HVDPEEPWSPCSARFITDSLDNGY [F19S] | 2.17
6 | HVDPEEPWSPCSARFITDTLDNGY [F19T] | 2.02
7 | HVDPEEPWSPCSPRFITDFLDNGY [A13P] | 1.89

Variants of: B2
Experiment: as above
Conditions: c terminus: a fixed tail appended

Row | Variant | protein stability index
8 | TLDGEGIHPKSIDLDNYFTARRLL [Y5E] | 2.21
9 | TLDGGGIHPKSIDLDNYFTARRLL [Y5G] | 2.43
10 | TLDGVGIHPKSIDLDNYFTARRLL [Y5V] | 2.42
11 | TLDGHGIHPKSIDLDNYFTARRLL [Y5H] | 2.12
12 | TLDGQGIHPKSIDLDNYFTARRLL [Y5Q] | 1.48
13 | TLDGTGIHPKSIDLDNYFTARRLL [Y5T] | 2.13
14 | TLDGLGIHPKSIDLDNYFTARRLL [Y5L] | 2.3
15 | TLDGSGIHPKSIDLDNYFTARRLL [Y5S] | 2.05
16 | TLDGMGIHPKSIDLDNYFTARRLL [Y5M] | 2.5
17 | TLDGFGIHPKSIDLDNYFTARRLL [Y5F] | 1.89
18 | TLDGPGIHPKSIDLDNYFTARRLL [Y5P] | 2.13
19 | TLDGDGIHPKSIDLDNYFTARRLL [Y5D] | 2.8
20 | TLDGYGIHPKSIMLDNYFTARRLL [D13M] | 1.64
21 | TLDGYGIHPKSIHLDNYFTARRLL [D13H] | 1.64
22 | TLDGYGIHPKSIELDNYFTARRLL [D13E] | 2.45
23 | TLDGYGIHPKSIWLDNYFTARRLL [D13W] | 2.21
24 | TLDGYGIHPKSIRLDNYFTARRLL [D13R] | 1.91
25 | TLDGYGIHPKSIGLDNYFTARRLL [D13G] | 2.25
26 | TLDGYGIHPKSITLDNYFTARRLL [D13T] | 2.11
27 | TLDGYGIHPKSIYLDNYFTARRLL [D13Y] | 1.46
28 | TLDGYGIHPKSINLDNYFTARRLL [D13N] | 2.1
29 | TLDGYGIHPKSIDLDNYFTANRLL [R21N] | 1.8

Row | Variant | protein stability index
30 | TLDGYGIHPKSIDLDNYFTAMRLL [R21M] | 1.86
31 | TLDGYGIHPKSIDLDNYFTATRLL [R21T] | 1.56
32 | TLDGYGIHPKSIDLDNYFTASRLL [R21S] | 1.69
33 | TLDGYGIHPKSIDLDNYFTAIRLL [R21I] | 1.6
34 | TLDGYGIHPKSIDLDNYFTAFRLL [R21F] | 1.77
35 | TLDGYGIHPKSIDLDNYFTARRLF [L24F] | 2.42
36 | TLDGYGIHPKSIDLDNYFTARRLC [L24C] | 1.84
37 | TLDGYGIHPKSIDLDNYFTARRLV [L24V] | 2.08
38 | TLDGYGIHPKSIDLDNYFTARRLG [L24G] | 2.56
39 | TLDGYGIHPKSIDLDNYFTARRLE [L24E] | 2.79
40 | TLDGYGIHPKSIDLDNYFTARRLD [L24D] | 2.69
41 | TLDGYGIHPKSIDLDNYFTARRLM [L24M] | 2.5
42 | TLDGYGIHPKSIDLDNYTTARRLL [F18T] | 2.25
43 | TLDGYGIHPKSIDLDNYPTARRLL [F18P] | 2.89
44 | TLDGYGIHPKSIDLDNYKTARRLL [F18K] | 2.88
45 | TLDGYGIHPKSIDLDNYWTARRLL [F18W] | 1.7
46 | TLDGYRIHPKSIDLDNYFTARRLL [G6R] | 1.87
47 | TLDGYYIHPKSIDLDNYFTARRLL [G6Y] | 1.71
48 | TLDGYPIHPKSIDLDNYFTARRLL [G6P] | 1.76
49 | TLDGYAIHPKSIDLDNYFTARRLL [G6A] | 2.26
50 | TLFGYGIHPKSIDLDNYFTARRLL [D3F] | 3.12
51 | TLYGYGIHPKSIDLDNYFTARRLL [D3Y] | 2.25

Row | Variant | protein stability index
52 | TLPGYGIHPKSIDLDNYFTARRLL [D3P] | 1.62
53 | TLRGYGIHPKSIDLDNYFTARRLL [D3R] | 2.33
54 | TLKGYGIHPKSIDLDNYFTARRLL [D3K] | 2.34
55 | TLMGYGIHPKSIDLDNYFTARRLL [D3M] | 2.07
56 | TLWGYGIHPKSIDLDNYFTARRLL [D3W] | 1.47
57 | TLVGYGIHPKSIDLDNYFTARRLL [D3V] | 1.62
58 | TLNGYGIHPKSIDLDNYFTARRLL [D3N] | 2.33
59 | TLDGYGIHPKSIDLDNYFTARRIL [L23I] | 1.64
60 | TLDGYGIHPKSIDLDNYFTARRQL [L23Q] | 2.71
61 | TLDGYGIHPKSIDLDNYFTARRFL [L23F] | 1.93
62 | TLDGYGIHPKSIDLDNYFTARRAL [L23A] | 2.62
63 | TLDGYGIHPKSIDLDNYFTARRYL [L23Y] | 2.33
64 | TLDGYGIHPKSIDLDNYFTARRVL [L23V] | 1.66
65 | TLDGYGIHPKSIDLDNYFTARRKL [L23K] | 3.26
66 | TLDGYGIHPKSIDLDNYFTARRTL [L23T] | 2.17
67 | TLDGYGIHPKSIDLDDYFTARRLL [N16D] | 2.03
68 | TLDGYGIHPKSIDLDVYFTARRLL [N16V] | 2.24
69 | TLDGYGIHPKSIDLDKYFTARRLL [N16K] | 1.39
70 | TLDGYGIHPKSIDLDAYFTARRLL [N16A] | 1.72
71 | TLDGYGIHPKSIDLDCYFTARRLL [N16C] | 2.51
72 | TLDGYGIHPKSIDLDPYFTARRLL [N16P] | 1.98
73 | TLDGYGIHPKSIDLDMYFTARRLL [N16M] | 1.87

Row | Variant | protein stability index
74 | TLDGYGIHPKSIDLDTYFTARRLL [N16T] | 1.76
75 | TLDGYGIHPKSIDLDGYFTARRLL [N16G] | 1.21
76 | TLDGYGIHPKSIDLDRYFTARRLL [N16R] | 1.82
77 | TLDGYGIHPKSIDLDNYFEARRLL [T19E] | 2.09
78 | TLDGYGIHPKSIDLDNYFAARRLL [T19A] | 2.01
79 | TLDGYGIHPKSIDLDNYFYARRLL [T19Y] | 1.8
80 | TLDGYGIHPKSIDLDNYFFARRLL [T19F] | 1.71
81 | TLDGYGIHPKSIDLDNYFDARRLL [T19D] | 2.07
82 | TLDGYGIHPKSIDLDNYFTARPLL [R22P] | 1.97
83 | TLDGYGIHPKSIDLDNYFTARKLL [R22K] | 2.2
84 | TLDGYGIHPKSIDLDNYFTARALL [R22A] | 1.49
85 | TLDGYGIHPKSIDLDNYFTARNLL [R22N] | 1.85
86 | TLDGYGIHPKSIDLDNYFTARTLL [R22T] | 2.25
87 | TQDGYGIHPKSIDLDNYFTARRLL [L2Q] | 1.66
88 | TVDGYGIHPKSIDLDNYFTARRLL [L2V] | 1.74
89 | TRDGYGIHPKSIDLDNYFTARRLL [L2R] | 1.92
90 | TSDGYGIHPKSIDLDNYFTARRLL [L2S] | 1.7
91 | TIDGYGIHPKSIDLDNYFTARRLL [L2I] | 2.61
92 | TNDGYGIHPKSIDLDNYFTARRLL [L2N] | 2.06
93 | THDGYGIHPKSIDLDNYFTARRLL [L2H] | 1.92
94 | TWDGYGIHPKSIDLDNYFTARRLL [L2W] | 2.37
